B1: Vap7 (ssDNA)
DNA: ATACCAGTCTATTCAATTGCACTCTGTGGGGGTGGACGGGCCGGGTAGATAGTATGTGCAATCA
modifications: G-quadruplex

Experiments:
VEGF-A165 = VEGF-A165 (Homo sapiens (Human), UniProt P15692 27-191, N-glycosylated (Sf21)); test: SPR; TBSE 10 mM Tris-HCl pH 7.0, 100 mM NaCl, 0.05 mM EDTA (folded with 50 mM KCl in Fig 3), 24 C; VEGF on CM5; conditions: chain copies: 2
VEGF-A121 = VEGF-A121 (Homo sapiens (Human), UniProt P15692 27-147, none (E. coli)); test: as above; conditions: chain copies: 2
Sequence of VEGF-A121 (P15692 other isoform, or with tags, fused parts or gaps): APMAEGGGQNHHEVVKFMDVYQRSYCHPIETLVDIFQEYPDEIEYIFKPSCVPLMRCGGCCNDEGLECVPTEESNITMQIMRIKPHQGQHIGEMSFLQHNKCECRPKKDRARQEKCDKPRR

Sequence of VEGF-A165 (P15692 other isoform, or with tags, fused parts or gaps): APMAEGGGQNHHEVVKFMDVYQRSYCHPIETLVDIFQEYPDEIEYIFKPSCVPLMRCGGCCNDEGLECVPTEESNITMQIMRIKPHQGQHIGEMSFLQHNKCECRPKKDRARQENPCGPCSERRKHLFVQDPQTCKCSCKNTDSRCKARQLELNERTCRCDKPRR

Row | Binder | Kd (VEGF-A165) | Kd (VEGF-A121)
1 | B1 | 20 nM | 1 nM
2 | TGTGGGGGTGGACGGGCCGGGTAGA (ssDNA, G-quadruplex) [V7t1] |  | 1.1 nM
